According to US20100278929A1 (MEDLMMUNE, published 2010):

Tests used:
[1] = biological target: T1, RSV (Long strain) F protein on infectious virus (respiratory syncytial virus (Long …, UniProt P12568 26-574)); assay: cell-based or functional assay
[2] = biological target: T2, recombinantly produced, C-terminally truncated RSV (A2 strain) F protein (respiratory syncytial virus (A2 strain), UniProt P03420 26-524); assay: SPR, BIAcore 3000; F protein coupled at low density to CM5 chip, mAb injected at 100-0.2 nM; 1:1 Langmuir fit
T2 construct: extracellular domain; also called RSV F protein; truncated F protein
T2 sequence (P03420 26-109, chain 1 of 2): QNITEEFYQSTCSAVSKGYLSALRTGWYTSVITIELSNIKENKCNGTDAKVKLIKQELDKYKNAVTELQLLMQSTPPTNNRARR
T2 sequence (P03420 137-524, chain 2 of 2): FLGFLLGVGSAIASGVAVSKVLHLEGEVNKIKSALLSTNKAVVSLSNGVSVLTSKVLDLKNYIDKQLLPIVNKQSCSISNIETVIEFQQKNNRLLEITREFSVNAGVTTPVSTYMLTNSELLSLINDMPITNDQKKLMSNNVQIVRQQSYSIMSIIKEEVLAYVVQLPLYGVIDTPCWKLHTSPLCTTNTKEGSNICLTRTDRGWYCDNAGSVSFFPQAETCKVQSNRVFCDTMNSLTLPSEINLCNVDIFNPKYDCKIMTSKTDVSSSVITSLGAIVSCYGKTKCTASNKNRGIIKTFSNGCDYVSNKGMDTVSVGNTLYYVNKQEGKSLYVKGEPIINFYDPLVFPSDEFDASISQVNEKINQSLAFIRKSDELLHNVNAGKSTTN
Experimental: (§1) Purified F protein was covalently coupled to an N-hydroxysuccinimide-N-ethyl-N′-[3-diethylaminopropyl]-carbodiimide (EDC/NHS) activated CM5 sensor chip at a low protein density according to the manufacturer's protocol; unreacted active ester groups were blocked with 1 M ethanolamine. For reference purposes, a blank surface, containing no antigen, was prepared under identical immobilization conditions.
(§2) For kinetic measurements, a serial 2-fold dilution series of each mAb from 100 nm-0.2 nm, made in instrument buffer (HBS/Tween-20, BIAcore, Inc.), was injected over the F-protein and reference cell surfaces, which are connected in series. In each analysis, following the dissociation phase, the remaining bound antibody was removed from the sensor chip by passing a brief pulse of 100 mM HCl over the surface. Once an entire data set was collected, the resulting binding curves were globally fitted to a 1:1 Langmuir binding model using BIAevaluation software (BIAcore, Inc., Piscataway, N.J.). This algorithm calculates both the association rate (kₒₙ) and the dissociation rate (koff), from which the apparent equilibrium binding constant, KD, for each antibody was deduced as the ratio of the two rate constants, koff/kₒₙ.

[3] = biological target: T2, recombinantly produced, C-terminally …; assay: SPR, BIAcore 3000; F protein coupled at low density to CM5 chip; KD = koff/kon
Experimental: as §1, §2

[4] = biological target: T1, RSV (Long strain) F protein on …; assay: cell-based or functional assay; remark: listed apart in the source
[5] = biological target: T1, RSV (Long strain) F protein on …; assay: cell-based or functional assay; remark: listed apart in the source
[6] = biological target: T1, RSV (Long strain) F protein on …; assay: cell-based or functional assay; remark: listed apart in the source

Row | Binder | average IC50, RSV microneutralization assay [1] [µg/mL] | koff [2] [s⁻¹] | kon [2] [M⁻¹ s⁻¹] | Kd [3] [nM] | Mean IC50 (Control), RSV microneutralization [4] [µg/mL] | Mean IC50 (Curve), RSV microneutralization [4] [µg/mL] | IC50 (read off the curve) [5] [µg/mL] | IC50 (read off the curve); sample: Cyno-69 BAL [6] [µg/mL] | IC50 (read off the curve); sample: purified MEDI-524 control [6] [µg/mL] | fold potency against palivizumab, RSV microneutralization assay [1] [fold]
1 | palivizumab (antibody, V domains shown, also called SYNAGIS) VH: QVTLRESGPALVKPTQTLTLTCTFSGFSLSTSGMSVGWIRQPPGKALEWLADIWWDDKKDYNPSLKSRLTISKDTSKNQVVLKVTNMDPADTATYYCARSMITNWYFDVWGAGTTVTVSS VL: DIQMTQSPSTLSASVGDRVTITCKCQLSVGYMHWYQQKPGKAPKLLIYDTSKLASGVPSRFSGSGSGTEFTLTISSLQPDDFATYYCFQGSGYPFTFGGGTKLEIK | 0.315 | 0.000395 | 114000 | 3.46 | 0.535 | 0.453 | ~0.4 |  |  | 
2 | A4B4L1FR-S28R (motavizumab) (antibody, V domains shown) VH: QVTLRESGPALVKPTQTLTLTCTFSGFSLSTAGMSVGWIRQPPGKALEWLADIWWDDKKHYNPSLKDRLTISKDTSKNQVVLKVTNMDPADTATYYCARDMIFNFYFDVWGQGTTVTVSS VL: DIQMTQSPSTLSASVGDRVTITCSASSRVGYMHWYQQKPGKAPKLLIYDTSKLASGVPSRFSGSGSGTEFTLTISSLQPDDFATYYCFQGSGYPFTFGGGTKVEIK | 0.018 |  |  |  |  |  | ~0.02 | ~0.01 | ~0.007 | ~18
